# Laboratory results: the RNAGym collection of RNA variant scans (doi:10.7554/elife.80360)
# B1: Hairpin Ribozyme (parent)
# chain: GUCCUCUUUCACGUGCGCGUGAAAGAGAGAAGUGAACCAGAGAAACACACGUUGUGGUAUAUUACCUGGUA
# Variants of: B1
# Assay: self-cleavage, relative activity (ratio to wild type); higher = more cleavage; co-transcriptional
row,Variant,self-cleavage
1,G21A G56A,0.19
2,U7A C38U,0.329
3,U33C G56C,0.167
4,U9C G56A,0.171
5,A26G A36G,0.769
6,C16A A39C,0.484
7,G27U U33G,0.145
8,A39U A45U,0.142
9,A49C U63G,0.153
10,C12G A23U,0.753
11,C18A A49G,0.54
12,G1C C18U,0.139
13,U14A A39G,0.345
14,U14G G29U,0.151
15,G15U U53A,1.16
16,C3U A64C,0.0981
17,G32A A43G,0.141
18,A23G A36C,0.69
19,G15A G25C,0.491
20,U8A U55C,0.322
21,A24G U52C,0.762
22,G1U U52G,0.143
23,U5C A35C,0.732
24,U2C C10A,0.117

row,Variant,self-cleavage
1,G27C C48A,0.0978
2,C38G G56A,0.134
3,C10A A22G,0.607
4,C50G U62A,0.213
5,U2A C3A,0.401
6,A30G A61C,0.109
7,A45C G51U,0.116
8,A28G C48A,0.143
9,C66G U67C,0.219
10,U2G A45C,0.0592
11,A43U U60C,0.221
12,U2G G13A,0.338
13,U7G C18U,1.07
14,G21A A31U,0.0982
15,C18G A31G,0.549
16,U33A C50U,0.105
17,G40A A41U,0.608
18,G21C G32C,0.175
19,A22U G69A,0.42
20,G13A C48A,0.144
21,C6U U63A,0.207
22,C6U C46U,0.176
23,U2C G32A,0.138
24,G13U G69C,0.198

row,Variant,self-cleavage
1,C6U A43U,0.119
2,C10A A36U,0.43
3,A36U G40U,0.126
4,U9A U63C,0.205
5,G15A C38A,0.148
6,A22C A43C,0.061
7,U53G G54A,0.569
8,G32A A43C,0.0569
9,G21C G40U,0.17
10,A30C C50U,0.118
11,C50A G54U,0.97
12,G17A U67C,0.163
13,G32C U53A,0.185
14,C4G G25C,0.157
15,U9G G25U,0.194
16,A35G U62G,0.139
17,U2G C50G,0.1
18,A43G A49U,0.197
19,C46U G54U,0.179
20,G27A A41G,0.261
21,A28G A43U,0.123
22,A11C G51C,0.8
23,C48A U52G,0.131
24,G27A A44G,0.0958

row,Variant,self-cleavage
1,C18G A59C,0.224
2,G17U A49U,0.195
3,A41G A61U,0.195
4,C18G C50A,0.245
5,A36U U62G,0.216
6,U9G G40U,0.086
7,G29U A59U,0.104
8,U55A U60G,0.33
9,A43U G54A,0.128
10,U67A G69U,0.321
11,G13A U60A,0.714
12,U33G G40C,0.0649
13,A28U U63C,0.113
14,G19A G40A,0.226
15,A24C A41U,0.996
16,G21U A39C,0.448
17,C16U A61G,0.148
18,A26C A39U,0.303
19,U53G C65A,0.641
20,A30G C65A,0.148
21,C10A G32C,0.0945
22,A31G C50U,0.266
23,U7G C16U,0.932
24,U63G A71U,0.117

row,Variant,self-cleavage
1,U9G G69A,0.223
2,U33A A49U,0.194
3,G57U A64C,0.139
4,A35C A64U,0.192
5,G1U A36C,0.143
6,C16U C50G,0.339
7,A36C G42A,0.0682
8,G54U U58C,0.713
9,A28U A41G,0.35
10,C10U U53G,0.725
11,U63C A64C,0.224
12,A35G C46A,0.125
13,C4U A49U,0.128
14,C3A G68C,0.211
15,G56U A59U,0.171
16,U9A A30C,0.172
17,A47C C66A,0.205
18,A31C A49G,0.0512
19,G42C G69U,0.157
20,G1U G42C,0.0939
21,G19C A71G,1.07
22,U14G G57U,0.234
23,G15C U53A,0.792
24,A24C G25C,0.315

row,Variant,self-cleavage
1,A36C A61C,0.116
2,G1C U7C,0.488
3,A35U U55C,0.274
4,G40C A61C,0.107
5,G32C U70A,0.0808
6,C12G G19U,0.997
7,A22G A44C,0.136
8,A26G C65G,0.23
9,A41G A71G,1.08
10,G21C A59C,0.238
11,U2A G57U,0.109
12,G27C C66G,0.156
13,A31U G40A,0.117
14,G1U A43G,0.0972
15,A22C G68A,0.165
16,C37A U60G,0.171
17,G1U G32U,0.0476
18,U8C U55C,0.132
19,U14G A24G,0.747
20,C3U A22G,0.603
21,G32U U70C,0.138
22,G13A G56C,0.119
23,A22G A30C,0.182
24,C46A A64U,0.255

row,Variant,self-cleavage
1,A64G,0.544
2,U9G U53G,0.656
3,C4U C37A,0.158
4,C6U G25U,0.762
5,U5G A36C,0.38
6,A44G U63C,0.21
7,U9G U67A,0.0846
8,U20C C65A,1
9,A11C G17C,0.745
10,G13C U53G,0.245
11,U14C C37G,0.319
12,U2A A28U,0.136
13,U2A C18U,0.314
14,C3G G54A,0.177
15,C4G U7C,0.15
16,U5A G15A,0.388
17,U7G U63C,0.143
18,U9C U60C,0.981
19,C48A U60A,0.134
20,G29C G69C,0.0776
21,U5G A39G,0.0943
22,U2A G34A,0.319
23,A36U A61U,0.213
24,C6U C18G,0.775

row,Variant,self-cleavage
1,U2A A39C,0.133
2,U2G C37U,0.319
3,U33C,0.161
4,U20G A30U,0.137
5,G34U U67A,0.876
6,C6U G54U,0.371
7,G15C C16U,1.29
8,A24C A61C,0.139
9,C10A G15A,0.773
10,A22G C37A,0.312
11,G13U A59U,0.181
12,U7C A47U,0.0995
13,A28G U60A,0.661
14,C4G A31G,0.238
15,U2G C50U,0.157
16,G32A A49U,0.0556
17,C10U C18U,0.95
18,C4U A11G,0.425
19,A49U A71U,0.146
20,G13A C48G,0.118
21,G17C A30C,0.099
22,A22U G54C,0.333
23,G32C U33G,0.12
24,G25C G56C,0.148

row,Variant,self-cleavage
1,G42U U55A,0.069
2,C50G U53C,0.327
3,C48G A49G,0.123
4,U62G A71C,0.281
5,C6G U60C,0.618
6,U9C A11C,0.592
7,G13C C38A,0.2
8,C6U C37G,0.372
9,U2A U5A,0.137
10,G21U A22U,0.809
11,U20A C38A,0.168
12,A11C A43G,0.0792
13,U14C A24G,0.81
14,G25A A41C,0.814
15,U14G A47U,0.105
16,C16G A45U,0.229
17,U2C G29C,0.16
18,A39G A59G,0.116
19,C10U A35C,0.871
20,C16A A43U,0.0656
21,U20A C48A,0.23
22,U60A A64U,0.0988
23,U14G U53A,0.835
24,C6G G34U,0.982

row,Variant,self-cleavage
1,A28G G32C,0.119
2,C3G A26U,0.214
3,A36U A39G,0.344
4,G40U,0.175
5,A47U U55A,0.161
6,U8C U70A,0.631
7,C48U G54U,0.203
8,A24U C37G,0.292
9,A41G A43U,0.152
10,U9C U70C,0.492
11,C18A C50U,0.428
12,G13C U70C,0.716
13,A30U A64U,0.13
14,U14G C18U,0.7
15,C18U C65U,0.373
16,A35C C50G,0.37
17,G29A U52A,0.115
18,C16A C37A,0.377
19,U2A C10U,0.208
20,G32C A45G,0.0948
21,G17C C48G,0.165
22,C3A C66U,0.435
23,U2G A22G,0.264
24,C6U A64C,0.238

row,Variant,self-cleavage
1,U9G C46U,0.0772
2,U2A C50G,0.189
3,C16U A64C,0.133
4,A26G A43G,0.114
5,A24G G32C,0.242
6,U9A G32U,0.135
7,G29A G32A,0.181
8,A23C C37G,0.159
9,U5C G17U,0.794
10,U20G G51U,0.916
11,A47U A71U,0.234
12,C3A G27C,0.21
13,G13C G40A,0.299
14,G34U G57A,0.887
15,C38G A64G,0.118
16,U5G C65G,0.0535
17,A45U A64C,0.18
18,C46A U52A,0.196
19,C10G U14G,0.378
20,A44U U63C,0.135
21,G51A U67G,0.628
22,C6G U14C,0.449
23,G29C U52A,0.129
24,C12U C46U,0.174

row,Variant,self-cleavage
1,A31C C65G,0.116
2,G13U A47C,0.326
3,A11C G27U,0.365
4,G57A A61U,0.143
5,G21C A61C,0.151
6,G29A U53A,0.109
7,C4A A28G,0.247
8,U14G C50G,0.2
9,A23G G34U,1.29
10,C48A G57A,0.121
11,C18G C37A,0.235
12,C10A U60G,0.377
13,A39U A64G,0.116
14,C10A G25A,0.187
15,U8C U67A,0.161
16,G29U U70C,0.127
17,U62G C65U,0.0799
18,A11C G56C,0.108
19,C4G A61C,0.164
20,G21A U62G,0.163
21,U9A G68C,0.165
22,U9C,0.819
23,C37A A41C,0.365
24,A24G C48A,0.191

row,Variant,self-cleavage
1,A45U G57A,0.17
2,U14C A30C,0.263
3,U5C A23C,0.692
4,C6G C48A,0.171
5,G42U C48A,0.215
6,G32U G68C,0.0784
7,C4U C12U,0.357
8,A31G G69U,0.258
9,G29A A49C,0.179
10,U20G G42U,0.245
11,A30G C50A,0.0824
12,U9C A41C,0.837
13,G54A C65U,0.102
14,C38U A39C,0.152
15,G21A A24U,0.513
16,G32A A44C,0.0922
17,C3A G56C,0.147
18,G51A A59U,0.178
19,U5A A45U,0.141
20,A41G A43C,0.285
21,G29C G34C,0.116
22,G25C C38A,0.0929
23,U52G A64G,0.301
24,U2C G25U,0.134

row,Variant,self-cleavage
1,C37G C48G,0.0962
2,U8C G13C,0.834
3,G51C U67G,0.164
4,U33C A35U,0.162
5,U2C U70G,0.269
6,U7C U53G,0.686
7,C12U A39C,0.407
8,C18A A47C,0.424
9,A44U U55C,0.168
10,U58C A59U,0.192
11,C12G G27A,0.29
12,C16A U63C,0.0962
13,C10A G15C,0.755
14,G1A C37A,0.0752
15,C46U U62C,0.213
16,A26G G29U,0.0885
17,C10U G32C,0.17
18,G25A G27C,0.155
19,U2G C66G,0.124
20,G13C C38G,0.179
21,U20C G40A,0.314
22,G13A C46U,0.221
